{"source": "patent US7572612B2", "about": "“Method of production of para-hydroxycinnamic acid using a thermostable TAL enzyme” (E.I. du Pont de Nemours and Company, priority 2006, dated 2009)", "key": {"[1]": {"assay": "TAL activity temperature profile of purified enzyme", "type": "biochemical", "procedure": "Six grams of cell pellet, from the 10 liter fermentation of DPD5154 was resuspended in 6.0 mL Buffer A (10 mM Tris-HCl, pH 8.0, 200 μM EDTA) containing one EDTA-free protease inhibitor tablet (Roche Biosciences, Palo Alto, Calif.), 1.0 μg/ml Leupeptin, 1.0 μg/ml Pepstatin, 40 μg/ml Bestatin 5.0 mM CA. Cells were lysed by two passes through a French Pressure Cell at 20,000 PSI, and clarified by centrifugation at 12,000×g for 20 minutes. To the clarified supernatant, 1.0% streptomycin sulfate was added, and the suspension was gently mixed for 15 minutes at 4° C. and then clarified by centrifugation at 12,000×g for 20 minutes. The supernatant was heated at 60° C. for 20 min, and centrifuged again at 12,000×g for 20 minutes. This clarified crude extract sample was loaded onto a Q Sepharose FF 16/10 anion exchange column equilibrated with buffer A in an Akta FPLC system (Amersham, GE Healthcare, Piscataway, N.J.), and eluted with 10 column volumes of gradient from Buffer A, to Buffer A containing 1.0 M NaCl. Five ml fractions were collected from the column and assayed for TAL activity as described above. The fractions containing TAL activity were pooled. To the pooled anion exchange fractions containing TAL activity, saturated (NH4)2SO4 (4.0M) was added to final 30% saturation. After centrifugation at 12,000 g for 20 minutes, additional saturated (NH4)2SO4 (4.0M) was added to the supernatant fraction to a final 50% saturation. The mixture was centrifuged again at 12,000 g for 20 minutes, and the supernatant was removed. […] The purity of the PcTAL protein in the fractions was analyzed by SDS-PAGE. The fractions containing TAL activity with high purity as determined by SDS-PAGE were pooled. […]\nThe in vitro enzymatic assay using the purified PcTAL was performed as a comparison to the whole cell assay. The temperature profile of the purified PcTAL enzyme (from Example 6) was measured at temperatures varying from 25° C. to 60° C. in 100 mM CAPS buffer, pH 10, containing 1.0 mM tyrosine. […]"}, "[2]": {"assay": "Bioconversion of tyrosine to pHCA by cell suspensions in 50 ml tubes", "type": "cell-based, E. coli", "conditions": "pH 9.9, 0.5 g dcw/L, 20 g/L tyrosine (Example 11)", "procedure": "A suspension of DPD5154 cells in ˜75 ml of saline solution (8.5 g NaCl/L) with a cell concentration at an OD550 of 221.47 was used. The desired OD550 of 2.998 (0.989 g dcw/L) was achieved through serial dilution of the original sample. The cell suspension was equilibrated to 50° C., titrated to pH 9.9 and stored at 50° C. A tyrosine stock of 40 g/L at pH 9.9 was also prepared and stored at 50° C. Reactions measuring bioconversion of tyrosine to pHCA by the cell suspension were carried out at the following temperatures: 34° C., 39° C., 47° C., and 59° C. Each reaction was initiated by adding 5.0 ml of the cell suspension to 5.0 ml of the 40 g/L tyrosine solution in a 50 ml disposable conical tube. The final concentration of cells in each reaction was 0.5 g dcw/L. The final concentration of tyrosine in each reaction was 20 g/L (110 mM). All reactions were incubated at the temperatures indicated above with shaking at 180 rpm. Samples (750 μl) were taken at 30, 60, 90, 120 minutes, centrifuged (14,000×g for ˜8 minutes), the supernatants filtered through 0.2 um filters (Costar #8161), and the filtrates diluted using 50 mM Tris/HCl, pH 7.5. The filtrates were analyzed by HPLC for the amount of pHCA as described in General Methods. The optimum reaction temperature among those temperatures tested was determined to be 39° C., and the reaction slowed down dramatically at 59° C. […]\nTo determine the optimum pH (between pH 9.8-11.0) for the bioconversion reaction of tyrosine to pHCA at 42° C. using strain DPD5154, reactions were performed as described in Example 11. Tyrosine solutions (40 g/L concentration) were titrated to pH 9.8, 10.0, 10.2, 10.5, and 11.0 and stored at 42° C. Reactions were initiated by adding 5.0 ml of cell suspension to 5.0 ml of each tyrosine solution in a 50 ml disposable conical tube. The final concentration of cells in each reaction was 0.5 g dcw/L and the final concentration of tyrosine was 20 g/L (110 mM). Reactions were incubated at 42° C. with shaking at 180 rpm."}}, "data": [{"molecule": "PcTAL: thermostable tyrosine ammonia lyase (PAL/TAL) enzyme from Phanerochaete chrysosporium, SEQ ID NO:1 (protein, listed as Phanerochaete chrysosporium) MPSRIDYYTSSGNGYAQSRKSSAIYPASASTGHAAPSTERKPELLDKFVEAYDELQSYREGKPVIVDGHNLSIPAVAATARFGAAVVLDENPETHERVLQSRRVIVDKVSTQRSVYGVSTGFGGSADTRTSDPLQLGHALLQHQHVGVLPTQTESPLPALPLGDPLATTSMPEAWVRGAILIRMNSLIRGHSGVRWELIEKMGELLRENITPLVPLRGSISASGDLSPLSYIAGTLIGSPAIRVFDGPASYGARRILPSNIALANHGVAPIPLSSKEHLGILNGTAFSASVGALALNEAVHLSLLAQVCTAMGTEAMIGAVGSFDAFIHDTARPHPGQVEVARNVRTLLEDSQMAVKAEDEVHIAEDEGELRQDRYPLRTAAQFLGPQIEDILSAHETVTLECNSTTDNPLIDGETGTVHHGGNFQAMAVTNAMEKTRLAIHHIGKLLFAQATELINPMMNRGLPPNLAATDPSHNYFAKGVDIHLAAYVGELGFLASPVSSHIQSAEMHNQAVNSLALVSARYTISALDVLSLLTAAYLYVLCQALDLRAMHNDLQSSLSAIVRELLPKHFPSAAKRADALLPILERTIFRALNSSSSADCKARMVSVAASTTTPLVDFLSADAALASELANITAFRTELATRAADALTTLRTQYLEGARGAAPASKYLGKTRPVYEFVRVTLNVPMHGRENLHNFEMGPGVEDGIIGNNISTIYEAIRDGKMQNVVMQLVKSIKA", "values": [{"measurement": "TAL activity at 55° C.", "setting": "[1]; 55° C.", "result": 1479, "unit": "U/g"}, {"measurement": "TAL activity at 60° C.", "setting": "[1]; 60° C.", "result": 1431, "unit": "U/g"}, {"measurement": "maximum activity of purified enzyme relative to that at 25° C.", "setting": "[1]; about 55° C. vs 25° C.", "result": "about 3 fold"}, {"measurement": "pHCA (mM) formed in 2 h", "setting": "[2]; 34° C.", "result": 5.0, "unit": "mM"}, {"measurement": "pHCA (mM) formed in 2 h", "setting": "[2]; 39° C.", "result": 6.2, "unit": "mM"}, {"measurement": "pHCA (mM) formed in 2 h", "setting": "[2]; 47° C.", "result": 4.7, "unit": "mM"}, {"measurement": "pHCA (mM) formed in 2 h", "setting": "[2]; 59° C.", "result": 0.02, "unit": "mM"}]}]}
